In the RNAGym collection of RNA variant scans (doi:10.1073/pnas.2313332121):
This sample holds only a part of the variants without activity.

B1: TPR 5TU (parent)
chain: GGAUCUUCUCGAUCUAACAAAAAAGACAAAUCUGCCACAAAGCUUGAGAGCAUCUUCGGAUGCAGAGGCGGCAGCCUUCGGUGGCGCGAUAGCGCCAACGUUCUCAACUAUGACACGCAAAACGCGUGCUCCGUUGAAUGGAGUUUAUCAUG

Variants of: B1
Assay: polymerase ribozyme fitness, log enrichment relative to wild type (log ratio); higher = more active; in vitro selection for triplet polymerase activity
Outline: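 Fitness is a logarithmic measure of how a genotype enriched relative to the wild type, with replicate averages weighted by inverse variance. The logarithm uses base 2, and enrichment came from Illumina sequencing of input and output libraries. Those libraries were PCR-built, transcribed mutants of each subunit of a heterodimeric triplet polymerase ribozyme, passed through one triplicate in vitro selection round that included frozen incubation at −7 °C, gel excision of extended constructs and streptavidin-bead capture. Genotypes were kept only if they had ≥10 input reads and ≥1 read per output.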

Compared with A3U C38A C85G C99U G124A, A3U C10U U56A C96U C116U G143A is higher in “polymerase ribozyme fitness (log ratio)” value: -3.77 for the first, -3.56 for the second.

U4A C5G G58A A73U C75U C85A G100A C105G U145A and A3U A16C A52U C57U C76U G86U cannot be ordered by “polymerase ribozyme fitness (log ratio)” value: ≤ -4.2 for the first, ≤ -4.2 for the second.

A3C U6G G46C C75A C79A G86A C103G G126U and A3G U13G A21U A40U C69A C79G G80A G83U C85U G86U G136C cannot be ordered by “polymerase ribozyme fitness (log ratio)” value: ≤ -4.2 for the first, ≤ -4.2 for the second.

Compared with A3G A19C G92A A98G, A3U A37U C96U C118G is lower in “polymerase ribozyme fitness (log ratio)” value: -3.18 for the first, -3.38 for the second.

Compared with A3U C87G A113C, U4A G83U C95G G124U U148C is lower in “polymerase ribozyme fitness (log ratio)” value: -4.19 for the first, ≤ -4.2 for the second.

U4A A29U C38U U44A U55A C57U C87G C95G and A3U A29C U61C cannot be ordered by “polymerase ribozyme fitness (log ratio)” value: ≤ -4.2 for the first, ≤ -4.2 for the second.

A3G U7G C38U A40G C54G C95U U145A and U4A A17G C35A G59C U135A cannot be ordered by “polymerase ribozyme fitness (log ratio)” value: ≤ -4.2 for the first, ≤ -4.2 for the second.

U4A C5G C69U C79U C85U G94C G117A G128U and U4A A16U A113C A115U cannot be ordered by “polymerase ribozyme fitness (log ratio)” value: ≤ -4.2 for the first, ≤ -4.2 for the second.

Going from A3U C96U A97G to A3G C93A C108U C125G A142G U145G U146A, the “polymerase ribozyme fitness (log ratio)” value falls from 0.661 to ≤ -4.2.

A3U U7C U56A G58C A60C G70C G88A G94A A115U and A3G G50C C76A A115U C131G cannot be ordered by “polymerase ribozyme fitness (log ratio)” value: ≤ -4.2 for the first, ≤ -4.2 for the second.

A3G A30G C38A G83A U101G and A3C U7G C87U C93G A98G G100U A120C U148A U151G cannot be ordered by “polymerase ribozyme fitness (log ratio)” value: ≤ -4.2 for the first, ≤ -4.2 for the second.

First: U4A A22C U56A G124U U135C
Second: U4A C85U
The “polymerase ribozyme fitness (log ratio)” value of the first is lower: -3.48 for the first, -1.53 for the second.

Going from A3U C85G C93G G136A A142C to A3U A17C A89U C132U, the “polymerase ribozyme fitness (log ratio)” value rises from ≤ -4.2 to -1.09.

Compared with U4A A19C A41U U56C G124A G143A, A3U C8U is higher in “polymerase ribozyme fitness (log ratio)” value: -3.84 for the first, -0.611 for the second.

First: A3U C8G
Second: U4A C76A G86C A122C
The “polymerase ribozyme fitness (log ratio)” value of the first is lower: ≤ -4.2 for the first, -3.26 for the second.

Going from A3G G94C to A3G A29G A39G G86U C99G, the “polymerase ribozyme fitness (log ratio)” value falls from -1.07 to ≤ -4.2.

U4A G25U C35U C87A C93G and U4A A20U G50C U55A A73G G84A G88C C132U U135A cannot be ordered by “polymerase ribozyme fitness (log ratio)” value: ≤ -4.2 for the first, ≤ -4.2 for the second.

A3G C36G U77C and A3G A89G C93U A137C A138U G140A cannot be ordered by “polymerase ribozyme fitness (log ratio)” value: ≤ -4.2 for the first, ≤ -4.2 for the second.

Compared with A3U G84A G94A A98C G124A, A3G A17U C85A A106G A107U C118G U134A A142G C149U is lower in “polymerase ribozyme fitness (log ratio)” value: -0.883 for the first, ≤ -4.2 for the second.

A3G A91U and A3G U13A U56A C96A A138G cannot be ordered by “polymerase ribozyme fitness (log ratio)” value: ≤ -4.2 for the first, ≤ -4.2 for the second.

U4A A23U C35U G46A G84U C103U U139A and U4A C38A U53G C85U G94C A107G A137C G140A cannot be ordered by “polymerase ribozyme fitness (log ratio)” value: ≤ -4.2 for the first, ≤ -4.2 for the second.

Compared with A3G A17C G143C, A3U C76G A89U C93U G100A A137C G143U U144A is lower in “polymerase ribozyme fitness (log ratio)” value: -2.6 for the first, ≤ -4.2 for the second.

Compared with A3G C85U, A3G C85G is lower in “polymerase ribozyme fitness (log ratio)” value: -1.05 for the first, -3.16 for the second.

A3G C8A U44A A47C U56A G84C C87G and A3G C27U U55A U90C G94U C114G C116A cannot be ordered by “polymerase ribozyme fitness (log ratio)” value: ≤ -4.2 for the first, ≤ -4.2 for the second.

Going from A3G C14G A147U to A3C U45A G67U G71C G80C C95A C103A, the “polymerase ribozyme fitness (log ratio)” value falls from -2.9 to ≤ -4.2.

Going from A3C U6A C35A C95U U102C C103G G143U to A3G A20C U53A G81C A121G, the “polymerase ribozyme fitness (log ratio)” value rises from ≤ -4.2 to -1.59.

Going from A3U U6A A39G C96G G124U G141A to A3U C14U A40U A52U G84A G112C, the “polymerase ribozyme fitness (log ratio)” value falls from -3.93 to ≤ -4.2.

Going from A3C U9A A30U G48A U53A C54U G67U C93G G126A U135G to U4A C51U G94C A98U, the “polymerase ribozyme fitness (log ratio)” value rises from ≤ -4.2 to -1.63.

A3G A20C A29U A41G C54U C87U C95U U135G and A3U U7A A37U G67U A91C G143A cannot be ordered by “polymerase ribozyme fitness (log ratio)” value: ≤ -4.2 for the first, ≤ -4.2 for the second.

Going from A3U U7A C8A C63U U90G to U4A A17C G94A C149U, the “polymerase ribozyme fitness (log ratio)” value rises from ≤ -4.2 to -1.61.

A3U G83A C87U U111G and A3G C38A G124C U134G G136U U146G cannot be ordered by “polymerase ribozyme fitness (log ratio)” value: ≤ -4.2 for the first, ≤ -4.2 for the second.

A3U A60G G70C G80C G86A U135G U144A and A3G U6G U90G C103U G141C cannot be ordered by “polymerase ribozyme fitness (log ratio)” value: ≤ -4.2 for the first, ≤ -4.2 for the second.

First: A3U A24G C32G
Second: A3U A22C U31C U61A
The “polymerase ribozyme fitness (log ratio)” value of the first is lower: -4.15 for the first, -2.45 for the second.

A3U A17G A49C C93A U104A A119C C132U G141C U145G and A3G C43U A60C G84A U130A cannot be ordered by “polymerase ribozyme fitness (log ratio)” value: ≤ -4.2 for the first, ≤ -4.2 for the second.

Compared with A3U G65A C85A, U4A A20G C35A U55G C72U C99U A120U U146A is lower in “polymerase ribozyme fitness (log ratio)” value: -3.12 for the first, ≤ -4.2 for the second.

First: A3U C93A
Second: A3U C93G
The “polymerase ribozyme fitness (log ratio)” value of the first is higher: -2.19 for the first, -2.5 for the second.

Compared with U4A C18U C79G A91U A142C U148C, U4A C8A U56A A122G G141A is higher in “polymerase ribozyme fitness (log ratio)” value: ≤ -4.2 for the first, -4.11 for the second.

First: A3G C14G U55A U56A C85U
Second: A3U C54U
The “polymerase ribozyme fitness (log ratio)” value of the first is lower: -4.18 for the first, -1.57 for the second.

U4A A60U G86A A107G A122C and A3U A21U G50U G58A U77A G100U A137G cannot be ordered by “polymerase ribozyme fitness (log ratio)” value: ≤ -4.2 for the first, ≤ -4.2 for the second.

Compared with U4A A37U G94C A150G, A3U G59C C85U G126A is higher in “polymerase ribozyme fitness (log ratio)” value: -4.19 for the first, -0.686 for the second.

A3G A22C U45C A66C G67C C93U A113U and A3C U4G A21C C38G A41C G68A G81A C85U C95U C116G cannot be ordered by “polymerase ribozyme fitness (log ratio)” value: ≤ -4.2 for the first, ≤ -4.2 for the second.

With A3U U31C C57U G86A the “polymerase ribozyme fitness (log ratio)” value was -1.99.
